B1: LigF (Sphingobium sp. SYK-6) (protein)
chain: MTLKLYSFGPGANSLKPLATLYEKGLEFEQVFVDPSKFEQHSDWFKKINPRGQVPALWHDGKVVTESTVICEYLEDVFPESGNSLRPADPFKRAEMRVWTKWVDEYFCWCVSTIGWAFGIKAIAQKMSDEEFEEHINKNVPIPEQQLKWRRARNGFPQEMLDEEFRKVGVSVARLEETLSKQDYLVDTGYSLADICNFAIANGLQRPGGFFGDYVNQEKTPGLCAWLDRINARPAIKEMFEKSKREDLLKRQNEKVA
notes: full-length wild type LigF (254 residues), vector pVP102KSSLigF; dimer
B2: LigE (Sphingobium sp. SYK-6) (protein)
chain: MARNNTITLYDLQLESGCTISPYVWRTKYALKHKGFDIDIVPGGFTGILERTGGRSERVPVIVDDGEWVLDSWVIAEYLDEKYPDRPMLFEGPTQKNLMKFLDNWLWSTAVGPWFRCYILDYHDLSLPQDRDYVRWSREQWFLGGQRLEDVQAGREDRLPLVPPTLEPFRRILAETKWLGGDQPNFADYSALAVFLWTASVARTPPLTEDDPLRDWLDRGFDLFDGLGRHPGMNPLFGLKLREGDPEPFVRQTGPAGAGGQALNKGPQTTKMPPRVAEKAD
notes: full-length LigE (282 residues), E. coli, synthesized gene in pCPD, C-terminal CPD-His tag cleaved off after a leucine; dimer

What was measured:
[1] = substrate: COc1ccc(C(=O)[C@H](CO)Oc2ccc(C=O)cc2OC)cc1OC; test: purified protein; assay type: biochemical, Sphingobium sp. SYK-6; conditions: 5 mM GSH, 25 mM Tris, 2.5% DMSO, pH 8.0, 30 °C
[2] = substrate: COc1ccc(C(=O)[C@@H](CO)Oc2ccc(C=O)cc2OC)cc1OC; test: purified protein; assay type: biochemical, Sphingobium sp. SYK-6; conditions: 5 mM GSH, 25 mM Tris, 2.5% DMSO, pH 8.0, 30 °C

Row | Protein | Km [1] | Vmax [1] | kcat [1] | kcat/Km [1] | Km [2] | Vmax [2] | kcat [2] | kcat/Km [2]
1 | B1 | 269 ± 1 µM | 63.8 µmol/min/mg | 31.9 ± 0.1 s⁻¹ | 118400 ± 1100 M⁻¹ s⁻¹ | – | – | – | –
2 | B2 | – | – | – | – | 554 ± 16 µM | 59.7 µmol/min/mg | 31.9 ± 0.6 s⁻¹ | 57600 ± 4800 M⁻¹ s⁻¹

Source: publication PMC4777856, “Structural Basis of Stereospecificity in the Bacterial Enzymatic Cleavage of β-Aryl Ether Bonds in Lignin” (The Journal of Biological Chemistry, 2015)
